The text below walks through data of PMC13065467, “Assembly and phosphoregulatory mechanisms of the budding yeast outer kinetochore KMN complex” (The Journal of Cell Biology, 2026).

One data set concerns K^HB-RWDM. Briefly: analytical SEC reconstitution with K^HB-RWDM. The format is binding, S. cerevisiae. As to conditions: Superose 6 3.2/300, 4 μM each, 20 mM HEPES pH 7.5, 150 mM NaCl, 1 mM TCEP, 30 min on ice. The procedure: (§1) To test the effect of deleting or mutating regions of the Dsn1 N-terminal disordered domain on Mis12c^Mtw1c auto-inhibition, 4 μM concentrations of Knl1c:Mis12c^Mtw1c complexes containing Knl1^Spc105_HB-RWD and different Dsn1 constructs were mixed with 4 μM concentrations of either CENP-C^Mif2_1-63 or CENP-QU in KMN buffer. Knl1c:Mis12c^Mtw1c complexes used contained one of the following Dsn1 constructs: K^HB-RWDM, contained full-length and wild-type Dsn1; K^HB-RWDM^S240E,S250E, contained Dsn1^S240E,250E; K^HB-RWDM^Dsn1Δ226, contained Dsn1^Δ1–226; K^HB-RWDM^Dsn1Δ257, contained Dsn1^Δ1–257; K^HB-RWDM^Dsn1Δ226,S240E,S250E, contained Dsn1^Δ1–226,S240E,S250E. Protein mixtures were incubated together on ice for 30 min to attempt to reconstitute a protein complex. 100 μl of individual proteins or protein complexes or reconstitution mixtures was loaded onto a Superose 6 3.2/300 size-exclusion chromatography column (Cytiva) equilibrated in (20 mM HEPES, pH 7.5, 150 mM NaCl, 1 mM TCEP), and 100 μl eluate fractions were collected. Aliquots of each indicated eluate fraction were mixed 1:1 (volume/volume) with 2xLDS-PAGE loading buffer supplied by Thermo Fisher Scientific, supplemented with DTT, boiled for 3 min at 95°C, and analyzed by SDS-PAGE.

For another data set, the system named is K^HB-RWDM^Dsn1Δ257. Description: analytical SEC reconstitution with K^HB-RWDM^Dsn1Δ257. It is filed as binding, S. cerevisiae. Conditions: Superose 6 3.2/300, 4 μM each, pH 7.5, Dsn1 residues 1–257 deleted. The procedure: as §1
Another data set relates to K^HB-RWDM^Dsn1Δ226. Briefly: analytical SEC reconstitution with K^HB-RWDM^Dsn1Δ226. It is filed as binding, S. cerevisiae. Conditions: Superose 6 3.2/300, 4 μM each, pH 7.5, Dsn1 residues 1–226 deleted. The procedure:
as §1

The subject of a further data set is K^HB-RWDM^2E. Briefly: analytical SEC reconstitution with K^HB-RWDM^2E. It is filed as binding, S. cerevisiae. As to conditions: Superose 6 3.2/300, 4 μM each, pH 7.5, full-length Dsn1 S240E,S250E. How it is done:
as §1

A further data set concerns K^HB-RWDM^Dsn1Δ226-2E. Description: analytical SEC reconstitution with K^HB-RWDM^Dsn1Δ226-2E. It is filed as binding, S. cerevisiae. Conditions: Superose 6 3.2/300, 4 μM each, pH 7.5, Dsn1 Δ1–226,S240E,S250E. How it is done:
as §1

The next data set deals with KM2E. Description: SPR, binding to KM2E (review history, removed from manuscript). Details: species or system S. cerevisiae. As to conditions: data removed from manuscript, review history only.

B1: CENP-C^Mif2_1-63: recombinant N-terminal fragment of S. cerevisiae CENP-C^Mif2 comprising residues 1–63 (protein)
chain: MDYMKLGLKSRKTGIDVKQDIPKDEYSMENIDDFFKDDETSLISMRRKSRRKSSLFLPSTLNG
modifications: left off: 6xHis-SUMO, N-terminal, cleaved
For orientation: Kd means the equilibrium constant for the complex coming apart. Higher therefore signals lower affinity. Turning to B1, the “binding by SEC” value in the data set with K^HB-RWDM (full-length wild-type Dsn1) is on record as “did not bind”; in the data set on K^HB-RWDM (full-length wild-type Dsn1, listed as CENP-C N-terminus (residues 1-63)) it was “did not”; with K^HB-RWDM^Dsn1Δ257, “did interact”; with K^HB-RWDM^Dsn1Δ226, “did not bind”; in the data set with K^HB-RWDM^2E it was “sufficient to abolish Mis12c^Mtw1c auto-inhibition”; with K^HB-RWDM^2E (listed as CENP-C (residues 1-63)), “bound KM2E”. For the same molecule, in the data set with K^HB-RWDM^Dsn1Δ226-2E, the “binding by SEC” value is “sufficient to abolish Mis12c^Mtw1c auto-inhibition”. Also, in the data set with KM2E, the affinity, expressed as Kd, was 260 nM.
